From patent US20140161821A1, “TREATMENT WITH ANTI-PCSK9 ANTIBODIES” (PFIZER INC., priority 2011, published 2014)

Tests used:
[1] = Example 3 clinical study, single IV dose on stable atorvastatin: L1L3 pharmacokinetics; conditions: geometric mean
Experimental: Infusion rates were carefully controlled by an infusion device per protocol. Atorvastatin (40 mg daily) was administered as described below in the study protocol. Subjects self-administered atorvastatin during their participation in this study except from Days 1 through 7 during their confinement to the clinic where the same dose was administered by qualified site personnel.
The subjects returned to the clinical research unit for subsequent visits.
In the study, the incidence of subjects meeting toxicity or intolerable dose criteria was measured. Incidence of treatment emergent adverse events (TEAEs) categorized by severity and causal relationship to study drug was also be measured. The timeframe for measurement of each of the above outcomes was two months.
Dose Administration: subjects took sponsor-provided atorvastatin (40 mg). […] Subjects fasted at least 10 hours prior to the lipid panel blood sample on Days 5 and 6.

[2] = Example 2 clinical study, single escalating IV doses: pharmacokinetics (NCA); assay type: in vivo, human
Experimental: The subjects, investigator, and site personnel (except site personnel responsible for drug preparation) were blinded to treatment assignments, as was the CRO designee; while the Sponsor clinical research team was unblinded. The study was conducted in 6 planned cohorts of 8 subjects per cohort in an effort to seek a maximum tolerated dose or MTD (total of approximately 48 subjects). […] Doses were administered following an overnight fast as an intravenous infusion over 60 minutes. […] Infusions will be administered as a single infusion over 60 minutes. […]
Drug was prepared by qualified unblinded site personnel and dispensed in a blinded fashion to the patient and immediate study staff.
In addition, single PK samples were obtained on Days 4, 7, 14, 21, 28 and additional PK follow-up visit (if applicable). One sample was drawn at each time point.

PCSK9 [3] = target: T1, PCSK9 (Homo sapiens, UniProt Q8NBP7); assay: Example 3 clinical study, single IV dose on stable atorvastatin: fasting LDL-C; assay type: in vivo
T1 construct: PCSK9 antagonist antibody that antagonizes circulating PCSK9; endogenous in cells; host or cells: human subjects in clinical trials (in vivo, circulating PCSK9)
From the text: Subjects who have hypertension and are controlled on stable dosages of anti-hypertensive medications could be included. The study included both genders, with a minimum age limit of 18 and a maximum age limit of 80.

PCSK9 [4] = target: T1, PCSK9; assay: Example 6 clinical study, IV doses every 4 weeks on stable statin: lipids; assay type: in vivo; conditions: for LDL-C lowering, % below baseline: by Day 29 (FIG. 15)
Experimental: This study was a randomized, multi center, double blind, placebo control, parallel designed trial with a 3 week screening period, 12 week treatment period and 8 week follow up period.
Subjects enrolled in the study met all of the following criteria: men and women subjects greater than equal to age of 18; body mass index of 18.5 to 40 kg/m^2; total body weight greater than 50 kg (110 lbs) and less than 150 kg (330 lbs); on a stable daily dose of a statin, defined as atorvastatin 40 or 80 mg, rosuvastatin 20 or 40 mg or simvastatin 40 or 80 mg for a minimum of 45 days prior to Day 1; lipids meet the following criteria at two qualifying visits (screening and Day −7): fasting LDL-C greater than or equal to 100 mg/dL, ;
The pre-specified primary efficacy endpoint was the percentage change from baseline of LDL-C at Day 85 analyzed using an ANCOVA model. The final ANCOVA model contained terms for baseline LDL-C and treatment. To preserve the overall type I error rate at a level of 0.05 for the primary endpoint analysis, a Haybittle-Peto, boundary with 0.001 alpha spent was employed.
The LDL-C data were subsequently analyzed using mixed model repeated measures to estimate both the treatment by time and empirical dose-response profiles.

[5] = IV every 4 weeks, stable daily statin

T1 sequence (Q8NBP7 153-692): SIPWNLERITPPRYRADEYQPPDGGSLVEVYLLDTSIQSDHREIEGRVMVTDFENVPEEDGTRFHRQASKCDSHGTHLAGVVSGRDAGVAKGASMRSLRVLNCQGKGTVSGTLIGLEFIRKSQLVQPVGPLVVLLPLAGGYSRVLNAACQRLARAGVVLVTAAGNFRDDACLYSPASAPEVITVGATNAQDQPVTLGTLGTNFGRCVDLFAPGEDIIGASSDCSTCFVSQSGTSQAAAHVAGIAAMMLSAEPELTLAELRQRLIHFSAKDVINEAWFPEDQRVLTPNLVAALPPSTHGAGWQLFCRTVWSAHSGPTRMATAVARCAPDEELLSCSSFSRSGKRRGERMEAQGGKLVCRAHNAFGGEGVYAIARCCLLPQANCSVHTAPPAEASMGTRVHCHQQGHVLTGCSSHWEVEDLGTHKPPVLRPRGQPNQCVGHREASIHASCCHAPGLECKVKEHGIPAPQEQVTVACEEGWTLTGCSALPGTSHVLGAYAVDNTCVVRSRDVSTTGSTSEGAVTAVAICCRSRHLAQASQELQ
T1 sequence (Q8NBP7 31-152 partner limits assumed): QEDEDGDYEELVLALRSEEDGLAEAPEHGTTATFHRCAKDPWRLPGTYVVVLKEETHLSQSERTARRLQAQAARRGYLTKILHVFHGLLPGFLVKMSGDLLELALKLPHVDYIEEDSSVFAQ

B1: L1L3: humanized (<5% murine residues) monoclonal PCSK9 antagonist antibody that binds to secreted PCSK9; VH SEQ ID NO: 11, VL SEQ ID NO: 12 (antibody, V domains shown)
VH: QVQLVQSGAEVKKPGASVKVSCKASGYTFTSYYMHWVRQAPGQGLEWMGEISPFGGRTNYNEKFKSRVTMTRDTSTSTVYMELSSLRSEDTAVYYCARERPLYASDLWGQGTTVTVSS
VL: DIQMTQSPSSLSASVGDRVTITCRASQGISSALAWYQQKPGKAPKLLIYSASYRYTGVPSRFSGSGSGTDFTFTISSLQPEDIATYYCQQRYSLWRTFGQGTKLEIK
modifications: heavy chain variable region; light chain variable region
AUCinf ([1]; 0.5 mg/kg L1L3 + atorvastatin): 46338 ng·days/mL
AUCt ([1]; 0.5 mg/kg L1L3 + atorvastatin): 38310 ng·days/mL
CL ([1]; 0.5 mg/kg L1L3 + atorvastatin): 10.8 mL/day/kg
Cmax ([1]; 0.5 mg/kg L1L3 + atorvastatin): 13.827 µg/mL
Vss ([1]; 0.5 mg/kg L1L3 + atorvastatin): 0.0402 L/kg
AUCinf ([1]; 4 mg/kg L1L3 + atorvastatin): 777167 ng·days/mL
AUCt ([1]; 4 mg/kg L1L3 + atorvastatin): 726337 ng·days/mL
CL ([1]; 4 mg/kg L1L3 + atorvastatin): 5.2 mL/day/kg
Cmax ([1]; 4 mg/kg L1L3 + atorvastatin): 105.048 µg/mL
Vss ([1]; 4 mg/kg L1L3 + atorvastatin): 0.0523 L/kg
AUC(0-∞) ([2]; single IV 0.3 mg/kg, mean): 34997.88 ng·days/mL
Cl ([2]; single IV 0.3 mg/kg, mean): 8.70 mL/day/kg
Cmax ([2]; single IV 0.3 mg/kg, mean): 10.31967 µg/mL
Half-life ([2]; single IV 0.3 mg/kg, mean): 65.8 h
Vss ([2]; single IV 0.3 mg/kg, mean): 0.03177 L/kg
AUC(0-∞) ([2]; single IV 0.3 mg/kg, median): 33748.15 ng·days/mL
Cl ([2]; single IV 0.3 mg/kg, median): 8.92 mL/day/kg
Cmax ([2]; single IV 0.3 mg/kg, median): 10.5375 µg/mL
Half-life ([2]; single IV 0.3 mg/kg, median): 65 h
Vss ([2]; single IV 0.3 mg/kg, median): 0.03074 L/kg
AUC(0-∞) ([2]; single IV 1 mg/kg, mean): 156399.94 ng·days/mL
Cl ([2]; single IV 1 mg/kg, mean): 6.58 mL/day/kg
Cmax ([2]; single IV 1 mg/kg, mean): 29.25183 µg/mL
Half-life ([2]; single IV 1 mg/kg, mean): 115 h
Vss ([2]; single IV 1 mg/kg, mean): 0.04159 L/kg
AUC(0-∞) ([2]; single IV 1 mg/kg, median): 166736.58 ng·days/mL
Cl ([2]; single IV 1 mg/kg, median): 6.00 mL/day/kg
Cmax ([2]; single IV 1 mg/kg, median): 28.2315 µg/mL
Half-life ([2]; single IV 1 mg/kg, median): 114 h
Vss ([2]; single IV 1 mg/kg, median): 0.04234 L/kg
AUC(0-∞) ([2]; single IV 3 mg/kg, mean): 709485.10 ng·days/mL
Cl ([2]; single IV 3 mg/kg, mean): 4.54 mL/day/kg
Cmax ([2]; single IV 3 mg/kg, mean): 96.7115 µg/mL
Half-life ([2]; single IV 3 mg/kg, mean): 210 h
Vss ([2]; single IV 3 mg/kg, mean): 0.04906 L/kg
AUC(0-∞) ([2]; single IV 3 mg/kg, median): 728278.54 ng·days/mL
Cl ([2]; single IV 3 mg/kg, median): 4.12 mL/day/kg
Cmax ([2]; single IV 3 mg/kg, median): 100.6205 µg/mL
Half-life ([2]; single IV 3 mg/kg, median): 194 h
Vss ([2]; single IV 3 mg/kg, median): 0.04894 L/kg
AUC(0-∞) ([2]; single IV 6 mg/kg, mean): 1446945.71 ng·days/mL
Cl ([2]; single IV 6 mg/kg, mean): 4.33 mL/day/kg
Cmax ([2]; single IV 6 mg/kg, mean): 175.85433 µg/mL
Half-life ([2]; single IV 6 mg/kg, mean): 201 h
Vss ([2]; single IV 6 mg/kg, mean): 0.06045 L/kg
AUC(0-∞) ([2]; single IV 6 mg/kg, median): 1289916.44 ng·days/mL
Cl ([2]; single IV 6 mg/kg, median): 4.65 mL/day/kg
Cmax ([2]; single IV 6 mg/kg, median): 177.485 µg/mL
Half-life ([2]; single IV 6 mg/kg, median): 186 h
Vss ([2]; single IV 6 mg/kg, median): 0.06133 L/kg
AUC(0-∞) ([2]; single IV 12 mg/kg, mean): 3768691.17 ng·days/mL
Cl ([2]; single IV 12 mg/kg, mean): 3.28 mL/day/kg
Cmax ([2]; single IV 12 mg/kg, mean): 353.96017 µg/mL
Half-life ([2]; single IV 12 mg/kg, mean): 492.7 h
Vss ([2]; single IV 12 mg/kg, mean): 0.07225 L/kg
AUC(0-∞) ([2]; single IV 12 mg/kg, median): 3599992.39 ng·days/mL
Cl ([2]; single IV 12 mg/kg, median): 3.36 mL/day/kg
Cmax ([2]; single IV 12 mg/kg, median): 357.671 µg/mL
Half-life ([2]; single IV 12 mg/kg, median): 293.8 h
Vss ([2]; single IV 12 mg/kg, median): 0.05752 L/kg
AUC(0-∞) ([2]; single IV 18 mg/kg, mean): 4812012.99 ng·days/mL
Cl ([2]; single IV 18 mg/kg, mean): 3.85 mL/day/kg
Cmax ([2]; single IV 18 mg/kg, mean): 532.44917 µg/mL
Half-life ([2]; single IV 18 mg/kg, mean): 311.3 h
Vss ([2]; single IV 18 mg/kg, mean): 0.06546 L/kg
AUC(0-∞) ([2]; single IV 18 mg/kg, median): 4857618.28 ng·days/mL
Cl ([2]; single IV 18 mg/kg, median): 3.71 mL/day/kg
Cmax ([2]; single IV 18 mg/kg, median): 560.4635 µg/mL
Half-life ([2]; single IV 18 mg/kg, median): 282.2 h
Vss ([2]; single IV 18 mg/kg, median): 0.06083 L/kg
mean percent change from baseline of fasting LDL-C (PCSK9 [3]; 0.5 mg/kg L1L3, atorvastatin 40 mg daily, Day 0): 0.0%
mean percent change from baseline of fasting LDL-C (PCSK9 [3]; 0.5 mg/kg L1L3, atorvastatin 40 mg daily, Day 1): −28.8%
mean percent change from baseline of fasting LDL-C (PCSK9 [3]; 0.5 mg/kg L1L3, atorvastatin 40 mg daily, Day 2): −48.5%
mean percent change from baseline of fasting LDL-C (PCSK9 [3]; 0.5 mg/kg L1L3, atorvastatin 40 mg daily, Day 3): −66.7%
mean percent change from baseline of fasting LDL-C (PCSK9 [3]; 0.5 mg/kg L1L3, atorvastatin 40 mg daily, Day 11): −34.4%
mean percent change from baseline of fasting LDL-C (PCSK9 [3]; 0.5 mg/kg L1L3, atorvastatin 40 mg daily, Day 18): 9.0%
mean percent change from baseline of fasting LDL-C (PCSK9 [3]; 0.5 mg/kg L1L3, atorvastatin 40 mg daily, Day 25): 23.3%
mean percent change from baseline of fasting LDL-C (PCSK9 [3]; 0.5 mg/kg L1L3, atorvastatin 40 mg daily, Day 32): 14.8%
mean percent change from baseline of fasting LDL-C (PCSK9 [3]; 0.5 mg/kg L1L3, atorvastatin 40 mg daily, Day 39): 21.2%
mean percent change from baseline of fasting LDL-C (PCSK9 [3]; 0.5 mg/kg L1L3, atorvastatin 40 mg daily, Day 46): 17.0%
mean percent change from baseline of fasting LDL-C (PCSK9 [3]; 0.5 mg/kg L1L3, atorvastatin 40 mg daily, Day 53): 27.9%
mean percent change from baseline of fasting LDL-C (PCSK9 [3]; 0.5 mg/kg L1L3, atorvastatin 40 mg daily, Day 60): 30.1%
Day on which the maximum LDL-C lowering effect was observed (PCSK9 [3]; 0.5 mg/kg L1L3, atorvastatin 40 mg, day following L1L3 administration): 3 days
mean percent change from baseline of fasting LDL-C (PCSK9 [3]; 4 mg/kg L1L3, atorvastatin 40 mg daily, Day 0): 0.0%
mean percent change from baseline of fasting LDL-C (PCSK9 [3]; 4 mg/kg L1L3, atorvastatin 40 mg daily, Day 1): −20.9%
mean percent change from baseline of fasting LDL-C (PCSK9 [3]; 4 mg/kg L1L3, atorvastatin 40 mg daily, Day 2): −38.4%
mean percent change from baseline of fasting LDL-C (PCSK9 [3]; 4 mg/kg L1L3, atorvastatin 40 mg daily, Day 3): −43.3%
mean percent change from baseline of fasting LDL-C (PCSK9 [3]; 4 mg/kg L1L3, atorvastatin 40 mg daily, Day 11): −64.6%
mean percent change from baseline of fasting LDL-C (PCSK9 [3]; 4 mg/kg L1L3, atorvastatin 40 mg daily, Day 18): −73.2%
mean percent change from baseline of fasting LDL-C (PCSK9 [3]; 4 mg/kg L1L3, atorvastatin 40 mg daily, Day 25): −70.8%
mean percent change from baseline of fasting LDL-C (PCSK9 [3]; 4 mg/kg L1L3, atorvastatin 40 mg daily, Day 32): −69.9%
mean percent change from baseline of fasting LDL-C (PCSK9 [3]; 4 mg/kg L1L3, atorvastatin 40 mg daily, Day 39): −45.1%
mean percent change from baseline of fasting LDL-C (PCSK9 [3]; 4 mg/kg L1L3, atorvastatin 40 mg daily, Day 46): −19.2%
mean percent change from baseline of fasting LDL-C (PCSK9 [3]; 4 mg/kg L1L3, atorvastatin 40 mg daily, Day 53): −3.6%
mean percent change from baseline of fasting LDL-C (PCSK9 [3]; 4 mg/kg L1L3, atorvastatin 40 mg daily, Day 60): 7.1%
Day through which the maximum LDL-C lowering effect was observed (PCSK9 [3]; 4 mg/kg L1L3, atorvastatin 40 mg, day following L1L3 administration): 32 days
LDL-C lowering (PCSK9 [4]; 3 mg/kg and 6 mg/kg dosing regimens, persisted for 28 days (FIG. 16)): greater than 30%
LDL-C lowering, % below baseline (PCSK9 [4]; 3 mg/kg dosing regimen, stable daily statin): about 50%
LDL-C lowering, % below baseline (PCSK9 [4]; 6 mg/kg dosing regimen, stable daily statin): about 65%
Effect on triglycerides (PCSK9 [4]; [5]): No effect
Elevation of HDL (PCSK9 [4]; [5]): up to 9%
Difference in LS means (Test-Reference) of percentage changes from baseline for LDL-C (PCSK9 [4]; L1L3 0.25 mg/kg vs. Placebo on Day 85, MMRM): 2.67
Difference in LS means (Test-Reference) of percentage changes from baseline for LDL-C (PCSK9 [4]; L1L3 1 mg/kg vs. Placebo on Day 85, MMRM): 0.83
Difference in LS means (Test-Reference) of percentage changes from baseline for LDL-C (PCSK9 [4]; L1L3 3 mg/kg vs. Placebo on Day 85, MMRM): −38.92
Difference in LS means (Test-Reference) of percentage changes from baseline for LDL-C (PCSK9 [4]; L1L3 6 mg/kg vs. Placebo on Day 85, MMRM): −50.14
